41 sequences from the nanobody polyreactivity screen of Harvey et al. (2022) can be followed below.

The series can be described thus: yeast display, Sf9 membrane polyspecificity reagent, FACS + sequencing; frameworks hold sequencing errors. In short, it runs like this:
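Using colony PCR, genes from sorted yeast display clones were amplified, then sequenced on MiSeq at 2 × 250 and filtered by CDR length. The clones had been stained with 10% biotinylated, detergent-solubilized Sf9 membrane reagent for 1 hour at 4 °C and sorted by FACS into low and high (top ~1%) gates on anti-HA and streptavidin fluorescence. Polyreactivity labels come from the gate of origin.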
As to “QVQLAESGGCLVQAGGRLRLSCAASGSTFPHYAMGWYRQAPGKERELVAAISVRGGRTYYADSVKGRFTISRDNAKNNDSLQMNSLKPEDTAVYYCNKYYDVTKYGYWGQGTQVTVSS”, the “polyreactivity (PSR sort gate)” value was “high polyreactivity”.

As to “QVQLAESGGGLVQAGGSLRLSCAASGIIFYFYAMGWYRQAPGKERELVAAINSSSGRTYYADSVKGRFTISRDNAKNSVYLQMNSLKPEDTAVYYCAAYYYGSYDGTPYDYWGQGTQVTVSS”, the “polyreactivity (PSR sort gate)” value is “low polyreactivity”.

For the sequence “QVQLAESGGGLVQAGGSLRLSCAASGIIFYFYAMGWYRQAPGKERELVAAISGTGGRTYYADSVKGRFTISRDNAKNTVYLQMNSLKPEDTAVYYCNADDTPVPSIRFDYWGQGTQVTVSS”, the “polyreactivity (PSR sort gate)” value is given as “low polyreactivity”.

Consider “QVQLAESGGGLVQAGGSLRLSCAASGSTFVAYAMGWYRQAPGKERELVAAITRSGGSTYYADSVKGRFTISRDNAKNTVYLQMNSLKPEDTAVYYCAARHYRSRDGYWGQGTQVTVSS”, for which the “polyreactivity (PSR sort gate)” value is on record as “high polyreactivity”.

For the sequence “QVQLEDSGGGLDQAGVSLRLSCAASGSTFLLYAMVGYRQAPGKERELVAAISRSSTSTYYADSVKGRFTISRDNAKNTVYLQMNSLKPEDTAVYYCAAVVTVQYSQPYDHWGQGTQVTVSS”, the “polyreactivity (PSR sort gate)” value is “high polyreactivity”.

On to “QVQLEDSGGGLVQAGGSLRLSCAASGFIFGSYTMGWYRQAPGKERELVAVITWSGSSTYYADSVKGRFTISRDNAKYPVYLQMNSLKPEDTAVYYCNAVKFGGYDYWGQGTQVTVSS”, for which the “polyreactivity (PSR sort gate)” value is listed as “high polyreactivity”.

Regarding “QVQLEDSGGGLVQAGGSLRLSCAASGFTFYSYAMGWYRQATGKERELVAAISWSGTRTYYADSVKGRFTISRDNAKNTVYLQMNSLKPEDTAVYYCAARGYRYGYGYWGQGTQVTVSS”, the “polyreactivity (PSR sort gate)” value was “high polyreactivity”.

As to “QVQLEDSGGGLVQAGGSLRLSCAASGLIFLDYAMGCYRQAPGKERELVAAISRSGGRTYYADSVKGRFTISRDNAKNTVYLQMNIVKPEDTAVYYCNAYQSARKKATASTYDSWGQCTQVTVSS”, the “polyreactivity (PSR sort gate)” value is listed as “high polyreactivity”.

“QVQLEDSGGGLVQAGGSLRLSCAASGRTFNKYAMGWYRQAPGKERELVAAINTSGGSTYYADSVKGRFTISRDNAKNTVYLQMNSLKPEDTAVYYCAAQSRSVYGRSYGYWGQGTQVTVSS”: the “polyreactivity (PSR sort gate)” value is given as “high polyreactivity”.

For the sequence “QVQLEDSGGGLVQAGGSLRLSCAASGRTFTYYAMGWYRQAPGKERELVATISYSGGSTYYADSVKGRFTISRDNAKNTVYLQMNSLKPEDTAVYYCATSGSGPWWKLYYSGQGTQVTVSS”, the “polyreactivity (PSR sort gate)” value is listed as “low polyreactivity”.

As to “QVQLEDSGGGLVQAGGSLRLSCAASGSIIGSYAMGLYRQAPGKERELVAAISRRGGSTYYADSVKGRFTISRDNAKNTVYLQMNSLKPEDTAVYYCARRDYGVLNKGLGQEGDYWGQGTQVTVSS”, the “polyreactivity (PSR sort gate)” value is reported as “low polyreactivity”.

Take “QVQLEDSGGVLVQAGGSLRLSCAASGFIYRFYPMGWYRKAPGKERELVAGISSSGGSTYYADSVKGRFTISRDYAKNTVYLQMNSLKPEDTAVFYCNAKRSDQSYKTFNYWGQGTQVTVSS”: the “polyreactivity (PSR sort gate)” value was “low polyreactivity”.

As for “QVQLEESAGGLVQAGGSLRLSCAASGIIFSGNAMGWYRQATGKERELVAAITLSGGSTYYADSVKGRFTISRDNAKNTVYLQMNSLKPEDTAVYYCNAVYDTIYSLRDIDTEYGSWGQGTQVTVSS”, the “polyreactivity (PSR sort gate)” value is recorded as “low polyreactivity”.

On to “QVQLEESAGGLVQAGGSLRLSCAASGRIFVRNAMGWYRQAPGKERELVADITNGGSTNYADSVKGRFTISRDNAKNTVYLQMNSLKPEDTAVYYCAATYPYSWVYSGYYYWGHGTQVTVSS”, for which the “polyreactivity (PSR sort gate)” value was “low polyreactivity”.

On to “QVQLEESAGGLVQAGGSLRLSCAASGYTFGRYAMGWYRQEPGKERELVAVITTGDSTYYADSVKGRFTISRDNAKNTVNLLMNSLKPEDTAVYYCAADGRLSRPFDYWGQGTQVTVSS”, for which the “polyreactivity (PSR sort gate)” value was “low polyreactivity”.

Take “QVQLEESCGGLVQAGGSLRLSCAASGRTFRYYPMGWYRQAPGKERELVAAITTGSSTYYADSVKGRFTISRDNANNTVYLQMNSLKPEDTAVFYCNVFQGTRYGYWGQGTQVTVSS”: the “polyreactivity (PSR sort gate)” value is “low polyreactivity”.

In the case of “QVQLEESGAGLVQAGGSLRLSCAASGSIFVRNAMAWYRHAPGKERELVAVITRSAGRTYYADSVKGRFTISRDNAKNTVYLQMNSLKPEDTAVYYCAASPSTPNKYGSWGQGTQVTVSS”, the “polyreactivity (PSR sort gate)” value is reported as “high polyreactivity”.

For the sequence “QVQLEESGGCIVQAGGSHRLSCAASGRTFTLNAMGWYRQAPGKEREFVAAISNSGVRTYYADSVKGRFTISRDNAKNTVFLQMNSLKPEDTGVYYCARTYQVGDSIDDYWGQGTQVNVSS”, the “polyreactivity (PSR sort gate)” value was “low polyreactivity”.

Take “QVQLEESGGCLVQAGGSLRLRCAASGRIVALNAMGWYRQAPGKERELVATIRCRGGATYYADSVKGRFTISRDNAKNTVYLQMNSLKPEDNAVYYCDAFTGNRRTYDYWGQGTQVTVSS”: the “polyreactivity (PSR sort gate)” value is given as “high polyreactivity”.

For the sequence “QVQLEESGGCLVQAGGSLRLSCAASGITFYGNVMGWYRQAPGKERELVAAISWSGGRTYYADSVKGRFTISRDNAKNTVSVQMNSLKPEDTAVDFCAAEGTTNRGVYASYDYWGQGTQVTVSS”, the “polyreactivity (PSR sort gate)” value is listed as “low polyreactivity”.

Take “QVQLEESGGGIVQAGGSLRLSCAASGRIFPYYAMGWYRQAPGKERALVAVISYSSGITYADSVKGRFTISRDNAKNTVYLQMNSLKPEDTAVYYCAADKWAFGATQYDYWGKGTQVTVSS”: the “polyreactivity (PSR sort gate)” value is recorded as “low polyreactivity”.

Regarding “QVQLEESGGGLFQAGGSLRLSCAASGRTFRLYDMGWYRQAPGKERELVAAISKSGGSTYYADSVKGRFTISRDYAKNPVYVQMNSLKPEDTAVYYCAAGTRVCEYDYWGQGTQVTVSS”, the “polyreactivity (PSR sort gate)” value was “high polyreactivity”.

As to “QVQLEESGGGLFQAGGSLRLSCAASGSTITRYAMGCYRQAPGKEREIVAVISRSGGSTYYADSVKGLFTISRDNAKNTVYLQINSLKPEDTAVYYCAAKYYGGRRSPYSYGYWGQGTQVTVSS”, the “polyreactivity (PSR sort gate)” value was “high polyreactivity”.

As to “QVQLEESGGGLLQAGGSLRLSCAATGSTFVTYAMGWYRQAPGKERELVAAISSGGGNTYYADSVKGRFTISRDNAMNSVYLQMHSLKPEDTAVYLCAADNPRSEYDYWGQGTQVTVSA”, the “polyreactivity (PSR sort gate)” value is “high polyreactivity”.

With “QVQLEESGGGLLQAGGSLRLTCAASGFTFYYYAMGWYRLATGKERYLVAAISGGGGSTYYADSVKGRFTISRDNAKNTVYLPMNSMKPEDTAVYYCAAVGSWRYNYDYDYWGQGSQVTVSS”, the “polyreactivity (PSR sort gate)” value is “high polyreactivity”.

For the sequence “QVQLEESGGGLVHAGGSLRLICAASGSTFSTYAMRWYRQAPGKERELVARITRGGSTNYADSVKGRFTISRDNAMNTVYLQMNCLKPDDTAVYYFSAGIRSGRKYDYWGQGTQVTVSS”, the “polyreactivity (PSR sort gate)” value is “low polyreactivity”.

On to “QVQLEESGGGLVKAGGSLRLSSAASGITIGIYLIGWYRQAPGTESEFVATISRSDDNTYYADSVMGRFTISRDNAKNTVYLQMNSLKPEDSAVYYCPADGVISAWYSSRDDYWGKGTQVTVSS”, for which the “polyreactivity (PSR sort gate)” value was “low polyreactivity”.

Take “QVQLEESGGGLVQAAGRLRVSCAASGYIYGYAMGWYKQAPAKEMELVAAITRGGGRTYYADSVKGRFTISRDNAKNTVYFQMHSLKPVDTAVYYCAVAANRGKGFYEYYHWGQGTQVTVSS”: the “polyreactivity (PSR sort gate)” value was “high polyreactivity”.

On to “QVQLEESGGGLVQAAGSLRLRCAASGSTLTFNAMGWYRHAPGKERELVAAISWSDTDTYYADSVKGRFTISRDNAKNTVYLQMNSLKPEDTAVYYCASTLSAYEMDYWGQGTQVTVSS”, for which the “polyreactivity (PSR sort gate)” value was “low polyreactivity”.

Consider “QVQLEESGGGLVQAGGILRLSCAASGSTFVNNAMGWYRQAPGKERELVAAITSGSRTKYADSVKGRFTMSLDNAKYTVYFQMNSLQPEDTAVYYWNTMRVGWGQGTQVTVSS”, for which the “polyreactivity (PSR sort gate)” value is given as “high polyreactivity”.

“QVQLEESGGGLVQAGGRLRLSCAASGRIFAVNAMGWYRQAPGKERELVASITSRGGSTYYADSVYGRFTISRDNAKNTVYLQMPSLKPEDTAVDYCASPYYSLTTNDYDYSGQGTQVTVSS”: the “polyreactivity (PSR sort gate)” value is “high polyreactivity”.

For the sequence “QVQLEESGGGLVQAGGRLRLSCAASGSNTRTYAMGWYRQAHGKERELVAAISSSVCRTYYADSVKGRFTISRDNEKNTVYLQMNSLKPEDTAVYYCNSRTYSYRGYNYWGQGTQVTVSS”, the “polyreactivity (PSR sort gate)” value is listed as “high polyreactivity”.

For the sequence “QVQLEESGGGLVQAGGRLRLSCAASGSTFRNYAMGWNITAAGKERELVAAISTNGGRTFYADSVKGRFTISRDNAKNTVYLQMNSLKPEDNAVYYCAAEYGLYAPGYYYWGQGTQVTVSS”, the “polyreactivity (PSR sort gate)” value is “low polyreactivity”.

For “QVQLEESGGGLVQAGGRLRLSCAASGSTYSEYAMGWSRKAPGKQRELVAAINWSGGSTYYADSVKGRFTISRDNAKNTVYLQMNSLKPEDTAVYYCNKVFRHHWYPAYNSWGQGTQVTVSS”, the “polyreactivity (PSR sort gate)” value was “low polyreactivity”.

As for “QVQLEESGGGLVQAGGSHRLSCAASGSIIYPYTMGWYRQAPRKERELVAAISGGGRTYYADSVKGRFTISRDNAKNTVYLQMNSLIPEDTAVYYCAARRGYPSGYEYWGQGTQVSVSS”, the “polyreactivity (PSR sort gate)” value was “high polyreactivity”.

As to “QVQLEESGGGLVQAGGSIRLSCAASGFIFYYNAMGWYRQAPGKERELVASIRSGGSTNYADSVKGRFTISRDNAKNTVYLQMNSLKPEDTAVYYCAADISRWSHRSKEMYYWGQGTQVTVSS”, the “polyreactivity (PSR sort gate)” value is recorded as “low polyreactivity”.

Regarding “QVQLEESGGGLVQAGGSLPLSCAASGVIFGYYAMGWYIQAPGKERELVAAISKSGGSTYYADSVKARFTISRDNAKNTVYVQMNSLIPEDTAVYDCNADPRTASDQLEFDYWGQGTQVNVSS”, the “polyreactivity (PSR sort gate)” value was “low polyreactivity”.

For “QVQLEESGGGLVQAGGSLRIRCAASGSTFVGYAMGWYRQAPGKERELVAAITSSGGRTYYADSVKGRFTISRDNAKNTVYLQMNSLKPEDTAVYYCAAPRARIGGSYDYWGQGTQVTGSS”, the “polyreactivity (PSR sort gate)” value is given as “high polyreactivity”.

Consider “QVQLEESGGGLVQAGGSLRLICAASGRIFDYYTMGWYRQAPGKERELVAAISSSGGSTYYADSVKGRFTISRDNAKNTVYLQMNSLKPEDPAVYYCNASVINEMNYWGQGTQVTVSS”, for which the “polyreactivity (PSR sort gate)” value is “low polyreactivity”.

Regarding “QVQLEESGGGLVQAGGSLRLICAASGRIFWLNAMGWYRQAPGKEREFVASITYGSDSTYYADSVKGRFTISRDNAKNTVYLQMNSLKPEDTAVYYCNREGWHYGPYVYWGQGTQVTVSS”, the “polyreactivity (PSR sort gate)” value is listed as “low polyreactivity”.

For the sequence “QVQLEESGGGLVQAGGSLRLICAASGRNFGYYPMGWYRQAPGKERELVAAISGSGGTTYYADSVKGRFTISRDIAKNTVYLQMISLKPEDTAVYYCNAGFGYYWHRGFFQYDYWGQGTQVTVSS”, the “polyreactivity (PSR sort gate)” value is “high polyreactivity”.
